Test results taken from article PMC3398536.

How the values were obtained:
Experiment in all cases: native gel or EMSA
[1] = biological target: AcK-pro-PanD variant with acetyl-lysine at position 9 (S. enterica)
[2] = biological target: AcK-pro-PanD variant with acetyl-lysine at position 104 (S. enterica)
[3] = biological target: AcK-pro-PanD variant with acetyl-lysine at position 53 (S. enterica)
[4] = biological target: AcK-pro-PanD variant with acetyl-lysine at position 115 (S. enterica)
[5] = biological target: AcK-pro-PanD variant with acetyl-lysine at position 119 (S. enterica)
[6] = biological target: pro-PanD (wild type), made from a plasmid in S. enterica ΔpanM (S. enterica)
[7] = biological target: AcK-pro-PanD variant with acetyl-lysine at position 14 (S. enterica)

“AcK-pro-PanD variant with acetyl-lysine at position 9 (natural protein)” was tested, and the stoichiometry N [1] was 4.
Substance “AcK-pro-PanD variant with acetyl-lysine at position 104 (natural protein)” has a stoichiometry N [2] of 4.
“AcK-pro-PanD variant with acetyl-lysine at position 53 (natural protein)” was tested, and the stoichiometry N [3] was 4.
With “AcK-pro-PanD variant with acetyl-lysine at position 115 (natural protein)” the stoichiometry N [4] was 4.
“AcK-pro-PanD variant with acetyl-lysine at position 119 (natural protein)” gave a stoichiometry N [5] of 4.
Substance “pro-PanD (wild type), made from a plasmid in S. enterica ΔpanM (natural protein)” has a stoichiometry N [6] of 4.
“AcK-pro-PanD variant with acetyl-lysine at position 14 (natural protein)” was tested, and the stoichiometry N [7] was 4.
